Measurements from patent publication US20120328625A1 (AstraZeneca / MedImmune, published 2012).
Values belong to the binder of their own block, whether it stands above or below them.

Columns and labels:
[1] = molecular target: T1, Recombinant Human/Mouse Indian Hedgehog C28II, amino terminal peptide (R&D Systems cat#1705-HH/CF) (human/mouse (100% sequence identity in …, UniProt Q14623 28-202)); assay: SPR (Biacore), IgG1 captured on protein G', human/mouse Ihh as analyte, 1:1 Langmuir
T1 construct: domain: amino terminal peptide; bought; also called Human/mouse Ihh; Ihh-N C28II
Description: (§1) Protein G was coupled to the CM5 chip surface using standard amine linkage chemistry. Protein G′ was cleared of Tris using a Dulbecco's PBS equilibrated PD-10 column. […] Approximately 500 RUs of protein G were covalently bound to the surface of flow chamber 2 (Fc2). […] Immobilization levels were reproducible between cycles.

[2] = molecular target: T1, Recombinant Human/Mouse Indian Hedgehog …; assay: cell-based or functional assay
[3] = molecular target: T2, Recombinant Human Sonic Hedgehog C24II amino terminal peptide (R&D Systems cat#1845-SH) (human, UniProt Q15465 24-197); assay: SPR (Biacore), IgG1 captured on protein G', human Shh as analyte, 1:1 Langmuir
T2 construct: domain: amino terminal peptide; bought; also called Shh-C24II; C24II peptide
Description: as §1

[4] = molecular target: T1, Recombinant Human/Mouse Indian Hedgehog …; assay: SPR (Biacore), IgG1 captured on protein G', Ihh as analyte
Description: as §1

[5] = molecular target: T2, Recombinant Human Sonic Hedgehog C24II …; assay: ELISA, apparent KD, purified antibody on immobilized Shh C24II
Protocol: (§2) The binding of purified antibodies to recombinant human Shh was determined using an ELISA-based method. The N-terminal signaling domain of Shh, Shh-N, was presented in two forms: as a purified protein isolated from bacteria lacking lipid modifications and as a constituent of conditioned medium in a form that contains the N-terminal palmitoyl modification but lacks the C-terminal cholesterol moiety.
(§3) The plates were sealed and placed on a shaker overnight at 5° C. The next day, the plates were washed 4 times with PBS with 0.05% Tween 20 (PBS-T). […] The plates were washed four times with PBS-T. Titrations of purified antibody (half log serial dilutions over at least six logs with a starting concentration of 30 μg/mL) were made in 100 μl PBS-T and added into wells and incubated with shaking overnight at 4° C. Antibody controls included human IgG2 and IgG4 (Sigma-Aldrich, Cat, #I5404 and #I4639, respectively). […] Following washing with PBS-T, the chemiluminescent Peroxidase substrate (Sigma cat# CPS-2-60) was added at room temperature and incubated for ten minutes with the plate covered by foil. Each well was read for 100 msec in the Spectromax 5e to determine RLU.

[6] = molecular target: T3, Shh-N in conditioned medium (human, UniProt Q15465 24-197, N-terminal palmitoyl modification; lacks the C-terminal cholesterol moiety); assay: cell-based or functional assay
[7] = molecular target: T3, Shh-N in conditioned medium; assay: ELISA, apparent KD, purified antibody on immobilized Shh-CM
Protocol: as §2, §3

- Kd [1]: 0.0342 nM
- IC50, inhibition of osteoblast differentiation of C3H10T1/2 cells induced by Ihh-N C28II (2 µg/ml) [2]: 16.3 nM
- Kd [3]: 0.003 nM
B1: 6D7OP (antibody, IgG1, V domains shown)
VH: QVQLQESGPGLVKPSQTLSLTCTVSGGSINSGGFYWSWIRQHPGKGLEWIGSIYYSGNTYYNPSLKSRVTISVDTSKNQFSLKLSSVTAADTAVYYCARGQDSGDYDWYFDLWGRGTLVTVSS
VL: SYELTQPPSVSVSPGQTASITCSGEKLGYKYVSWYQQKPGQSPVLVIYHDNKRPSGIPERFSGSNSGNTATLTISGTQAMDEADYYCQAGDSSAVFGGGTKLTVL

- binding result [4]: no binding
- Kd [5]: 0.082 nM
- IC50, inhibition of osteoblast differentiation (alkaline phosphatase) of C3H10T1/2 cells [6]: 5.6 nM
- Kd [3]: 0.0261 nM
- Kd [7]: 0.685 nM
B2: 3H8OP (antibody, V domains shown)
VH: QVQLVESGGGVVQPGRSLRLSCAASGFTFSTYGMHWVRQAPGKGLEWVAVIWYDGSNKYYADSVKGRFTISRDNSKNTLYLQMNSLRAEDTAVYYCARDLYYYGSGSPFDYWGQGTLVTVSS
VL: EIVMTQSPATLSVSPGERATLSCRASQSVSSNLAWYQQKPGQAPRLLIYGVSIRATGIPARFSGSGSGTEFTLTISSLQSEDFAVYYCQQYNNWPRPGFGGGTKVEIK
